# Results: IntAct's records for PubMed 21063388
# B1: Protein Gawky (Drosophila melanogaster (Fruit fly)), Q8SY33 (parent)
# chain: MREALFSQDGWGCQHVNQDTNWEVPSSPEPANKDAPGPPMWKPSINNGTDLWESNLRNGGQPAAQQVPKPSWGHTPSSNLGGTWGEDDDGADSSSVWTGGAVSNAGSGAAVGVNQAGVNVGPGGVVSSGGPQWGQGVVGVGLGSTGGNGSSNITGSSGVATGSSGNSSNAGNGWGDPREIRPLGVGGSMDIRNVEHRGGNGSGATSSDPRDIRMIDPRDPIRGDPRGISGRLNGTSEMWGHHPQMSHNQLQGINKMVGQSVATASTSVGTSGSGIGPGGPGPSTVSGNIPTQWGPAQPVSVGVSGPKDMSKQISGWEEPSPPPQRRSIPNYDDGTSLWGQQTRVPAASGHWKDMTDSIGRSSHLMRGQSQTGGIGIAGVGNSNVPVGANPSNPISSVVGPQARIPSVGGVQHKPDGGAMWVHSGNVGGRNNVAAVTTWGDDTHSVNVGAPSSGSVSSNNWVDDKSNSTLAQNSWSDPAPVGVSWGNKQSKPPSNSASSGWSTAAGVVDGVDLGSEWNTHGGIIGKSQQQQKLAGLNVGMVNVINAEIIKQSKQYRILVENGFKKEDVERALVIANMNIEEAADMLRANSSLSMDGWRRHDESLGSYADHNSSTSSGGFAGRYPVNSGQPSMSFPHNNLMNNMGGTAVTGGNNNTNMTALQVQKYLNQGQHGVAVGPQAVGNSSAVSVGFGQNTSNAAVAGAASVNIAANTNNQPSGQQIRMLGQQIQLAIHSGFISSQILTQPLTQTTLNLLNQLLSNIKHLQAAQQSLTRGGNVNPMAVNVAISKYKQQIQNLQNQINAQQAVYVKQQNMQPTSQQQQPQQQQLPSVHLSNSGNDYLRGHDAINNLQSNFSELNINKPSGYQGASNQQSRLNQWKLPVLDKEINSDSTEFSRAPGATKQNLTANTSNINSLGLQNDSTWSTGRSIGDGWPDPSSDNENKDWSVAQPTSAATAYTDLVQEFEPGKPWKGSQIKSIEDDPSITPGSVARSPLSINSTPKDADIFANTGKNSPTDLPPLSLSSSTWSFNPNQNYPSHSWSDNSQQCTATSELWTSPLNKSSSRGPPPGLTANSNKSANSNASTPTTITGGANGWLQPRSGGVQTTNTNWTGGNTTWGSSWLLLKNLTAQIDGPTLRTLCMQHGPLVSFHPYLNQGIALCKYTTREEANKAQMALNNCVLANTTIFAESPSENEVQSIMQHLPQTPSSTSSSGTSGGNVGGVGTSANNANSGSAACLSGNNSGNGNGSASGAGSGNNGNSSCNNSAAGGGSSSNNTITTVANSNLVGSSGSVSNSSGVTANSSTVSVVSCTASGNSINGAGTANSSGSKSSANNLASGQSSASNLTNSTNSTWRQTSQNQALQSQSRPSGREADFDYISLVYSIVDD
# B2: Trinucleotide repeat-containing gene 6A protein (Homo sapiens), Q8NDV7 (parent)
# chain: MRELEAKATKDVERNLSRDLVQEEEQLMEEKKKKKDDKKKKEAAQKKATEQKIKVPEQIKPSVSQPQPANSNNGTSTATSTNNNAKRATANNQQPQQQQQQQQPQQQQPQQQPQPQPQQQQPQQQPQALPRYPREVPPRFRHQEHKQLLKRGQHFPVIAANLGSAVKVLNSQSESSALTNQQPQNNGEVQNSKNQSDINHSTSGSHYENSQRGPVSSTSDSSTNCKNAVVSDLSEKEAWPSAPGSDPELASECMDADSASSSESERNITIMASGNTGGEKDGLRNSTGLGSQNKFVVGSSSNNVGHGSSTGPWGFSHGAIISTCQVSVDAPESKSESSNNRMNAWGTVSSSSNGGLNPSTLNSASNHGAWPVLENNGLALKGPVGSGSSGINIQCSTIGQMPNNQSINSKVSGGSTHGTWGSLQETCESEVSGTQKVSFSGQPQNITTEMTGPNNTTNFMTSSLPNSGSVQNNELPSSNTGAWRVSTMNHPQMQAPSGMNGTSLSHLSNGESKSGGSYGTTWGAYGSNYSGDKCSGPNGQANGDTVNATLMQPGVNGPMGTNFQVNTNKGGGVWESGAANSQSTSWGSGNGANSGGSRRGWGTPAQNTGTNLPSVEWNKLPSNQHSNDSANGNGKTFTNGWKSTEEEDQGSATSQTNEQSSVWAKTGGTVESDGSTESTGRLEEKGTGESQSRDRRKIDQHTLLQSIVNRTDLDPRVLSNSGWGQTPIKQNTAWDTETSPRGERKTDNGTEAWGSSATQTFNSGACIDKTSPNGNDTSSVSGWGDPKPALRWGDSKGSNCQGGWEDDSAATGMVKSNQWGNCKEEKAAWNDSQKNKQGWGDGQKSSQGWSVSASDNWGETSRNNHWGEANKKSSSGGSDSDRSVSGWNELGKTSSFTWGNNINPNNSSGWDESSKPTPSQGWGDPPKSNQSLGWGDSSKPVSSPDWNKQQDIVGSWGIPPATGKPPGTGWLGGPIPAPAKEEEPTGWEEPSPESIRRKMEIDDGTSAWGDPSKYNYKNVNMWNKNVPNGNSRSDQQAQVHQLLTPASAISNKEASSGSGWGEPWGEPSTPATTVDNGTSAWGKPIDSGPSWGEPIAAASSTSTWGSSSVGPQALSKSGPKSMQDGWCGDDMPLPGNRPTGWEEEEDVEIGMWNSNSSQELNSSLNWPPYTKKMSSKGLSGKKRRRERGMMKGGNKQEEAWINPFVKQFSNISFSRDSPEENVQSNKMDLSGGMLQDKRMEIDKHSLNIGDYNRTVGKGPGSRPQISKESSMERNPYFDKDGIVADESQNMQFMSSQSMKLPPSNSALPNQALGSIAGLGMQNLNSVRQNGNPSMFGVGNTAAQPRGMQQPPAQPLSSSQPNLRAQVPPPLLSPQVPVSLLKYAPNNGGLNPLFGPQQVAMLNQLSQLNQLSQISQLQRLLAQQQRAQSQRSVPSGNRPQQDQQGRPLSVQQQMMQQSRQLDPNLLVKQQTPPSQQQPLHQPAMKSFLDNVMPHTTPELQKGPSPINAFSNFPIGLNSNLNVNMDMNSIKEPQSRLRKWTTVDSISVNTSLDQNSSKHGAISSGFRLEESPFVPYDFMNSSTSPASPPGSIGDGWPRAKSPNGSSSVNWPPEFRPGEPWKGYPNIDPETDPYVTPGSVINNLSINTVREVDHLRDRNSGSSSSLNTTLPSTSAWSSIRASNYNVPLSSTAQSTSARNSDSKLTWSPGSVTNTSLAHELWKVPLPPKNITAPSRPPPGLTGQKPPLSTWDNSPLRIGGGWGNSDARYTPGSSWGESSSGRITNWLVLKNLTPQIDGSTLRTLCMQHGPLITFHLNLPHGNALVRYSSKEEVVKAQKSLHMCVLGNTTILAEFASEEEISRFFAQSQSLTPSPGWQSLGSSQSRLGSLDCSHSFSSRTDLNHWNGAGLSGTNCGDLHGTSLWGTPHYSTSLWGPPSSSDPRGISSPSPINAFLSVDHLGGGGESM
# B3: Trinucleotide repeat-containing gene 6C protein (Homo sapiens), Q9HCJ0-1 (parent)
# chain: MATGSAQGNFTGHTKKTNGNNGTNGALVQSPSNQSALGAGGANSNGSAARVWGVATGSSSGLAHCSVSGGDGKMDTMIGDGRSQNCWGASNSNAGINLNLNPNANPAAWPVLGHEGTVATGNPSSICSPVSAIGQNMGNQNGNPTGTLGAWGNLLPQESTEPQTSTSQNVSFSAQPQNLNTDGPNNTNPMNSSPNPINAMQTNGLPNWGMAVGMGAIIPPHLQGLPGANGSSVSQVSGGSAEGISNSVWGLSPGNPATGNSNSGFSQGNGDTVNSALSAKQNGSSSAVQKEGSGGNAWDSGPPAGPGILAWGRGSGNNGVGNIHSGAWGHPSRSTSNGVNGEWGKPPNQHSNSDINGKGSTGWESPSVTSQNPTVQPGGEHMNSWAKAASSGTTASEGSSDGSGNHNEGSTGREGTGEGRRRDKGIIDQGHIQLPRNDLDPRVLSNTGWGQTPVKQNTAWEFEESPRSERKNDNGTEAWGCAATQASNSGGKNDGSIMNSTNTSSVSGWVNAPPAAVPANTGWGDSNNKAPSGPGVWGDSISSTAVSTAAAAKSGHAWSGAANQEDKSPTWGEPPKPKSQHWGDGQRSNPAWSAGGGDWADSSSVLGHLGDGKKNGSGWDADSNRSGSGWNDTTRSGNSGWGNSTNTKANPGTNWGETLKPGPQQNWASKPQDNNVSNWGGAASVKQTGTGWIGGPVPVKQKDSSEATGWEEPSPPSIRRKMEIDDGTSAWGDPSNYNNKTVNMWDRNNPVIQSSTTTNTTTTTTTTTSNTTHRVETPPPHQAGTQLNRSPLLGPGRKVSSGWGEMPNVHSKTENSWGEPSSPSTLVDNGTAAWGKPPSSGSGWGDHPAEPPVAFGRAGAPVAASALCKPASKSMQEGWGSGGDEMNLSTSQWEDEEGDVWNNAASQESTSSCSSWGNAPKKGLQKGMKTSGKQDEAWIMSRLIKQLTDMGFPREPAEEALKSNNMNLDQAMSALLEKKVDVDKRGLGVTDHNGMAAKPLGCRPPISKESSVDRPTFLDKDGGLVEEPTPSPFLPSPSLKLPLSHSALPSQALGGIASGLGMQNLNSSRQIPSGNLGMFGNSGAAQARTMQQPPQPPVQPLNSSQPSLRAQVPQFLSPQVQAQLLQFAAKNIGLNPALLTSPINPQHMTMLNQLYQLQLAYQRLQIQQQMLQAQRNVSGSMRQQEQQVARTITNLQQQIQQHQRQLAQALLVKQPPPPPPPPHLSLHPSAGKSAMDSFPSHPQTPGLPDLQTKEQQSSPNTFAPYPLAGLNPNMNVNSMDMTGGLSVKDPSQSQSRLPQWTHPNSMDNLPSAASPLEQNPSKHGAIPGGLSIGPPGKSSIDDSYGRYDLIQNSESPASPPVAVPHSWSRAKSDSDKISNGSSINWPPEFHPGVPWKGLQNIDPENDPDVTPGSVPTGPTINTTIQDVNRYLLKSGGKLSDIKSTWSSGPTSHTQASLSHELWKVPRNSTAPTRPPPGLTNPKPSSTWGASPLGWTSSYSSGSAWSTDTSGRTSSWLVLRNLTPQIDGSTLRTLCLQHGPLITFHLNLTQGNAVVRYSSKEEAAKAQKSLHMCVLGNTTILAEFAGEEEVNRFLAQGQALPPTSSWQSSSASSQPRLSAAGSSHGLVRSDAGHWNAPCLGGKGSSELLWGGVPQYSSSLWGPPSADDSRVIGSPTPLTTLLPGDLLSGESL
# Variants of: B1
# Conditions: with pabp_drome pAbp
row,Variant,effect of a mutation on the interaction
1,V958P,increasing interaction
2,Q959P,increasing interaction

# Variants of: B1
# Conditions: with pabp_drome pAbp
# Remark: another data set of the same source
# Target sequence in this assay (P21187 whole entry): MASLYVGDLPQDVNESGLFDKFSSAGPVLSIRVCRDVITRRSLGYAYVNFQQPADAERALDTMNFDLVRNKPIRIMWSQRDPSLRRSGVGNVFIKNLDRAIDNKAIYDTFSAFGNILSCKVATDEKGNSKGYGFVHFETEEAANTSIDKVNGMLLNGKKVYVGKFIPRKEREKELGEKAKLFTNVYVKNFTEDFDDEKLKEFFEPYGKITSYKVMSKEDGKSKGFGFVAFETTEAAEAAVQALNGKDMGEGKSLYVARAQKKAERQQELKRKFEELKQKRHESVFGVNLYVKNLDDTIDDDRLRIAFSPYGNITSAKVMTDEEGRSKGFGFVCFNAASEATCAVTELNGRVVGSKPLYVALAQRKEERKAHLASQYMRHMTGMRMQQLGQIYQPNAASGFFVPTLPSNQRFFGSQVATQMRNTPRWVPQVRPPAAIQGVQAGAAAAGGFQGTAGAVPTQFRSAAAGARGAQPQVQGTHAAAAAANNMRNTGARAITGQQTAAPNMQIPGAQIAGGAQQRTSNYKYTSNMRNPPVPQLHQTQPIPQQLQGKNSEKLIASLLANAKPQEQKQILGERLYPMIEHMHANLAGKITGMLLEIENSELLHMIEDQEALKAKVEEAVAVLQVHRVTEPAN
row,Variant,effect of a mutation on the interaction
1,E962Q,increasing interaction

# Variants of: B1
# Conditions: with pabp_drome pAbp
# Remark: another data set of the same source
# Target sequence in this assay (P21187 whole entry): as above
row,Variant,effect of a mutation on the interaction
1,F961A,disrupting interaction

# Variants of: B2
# Conditions: with pabp_drome pAbp
# Target sequence in this assay (P21187 whole entry): as above
row,Variant,effect of a mutation on the interaction
1,F1612A,disrupting interaction

# Variants of: B2
# Conditions: with pabp1_human PABPC1, P11940
# Target sequence in this assay (P11940 whole entry): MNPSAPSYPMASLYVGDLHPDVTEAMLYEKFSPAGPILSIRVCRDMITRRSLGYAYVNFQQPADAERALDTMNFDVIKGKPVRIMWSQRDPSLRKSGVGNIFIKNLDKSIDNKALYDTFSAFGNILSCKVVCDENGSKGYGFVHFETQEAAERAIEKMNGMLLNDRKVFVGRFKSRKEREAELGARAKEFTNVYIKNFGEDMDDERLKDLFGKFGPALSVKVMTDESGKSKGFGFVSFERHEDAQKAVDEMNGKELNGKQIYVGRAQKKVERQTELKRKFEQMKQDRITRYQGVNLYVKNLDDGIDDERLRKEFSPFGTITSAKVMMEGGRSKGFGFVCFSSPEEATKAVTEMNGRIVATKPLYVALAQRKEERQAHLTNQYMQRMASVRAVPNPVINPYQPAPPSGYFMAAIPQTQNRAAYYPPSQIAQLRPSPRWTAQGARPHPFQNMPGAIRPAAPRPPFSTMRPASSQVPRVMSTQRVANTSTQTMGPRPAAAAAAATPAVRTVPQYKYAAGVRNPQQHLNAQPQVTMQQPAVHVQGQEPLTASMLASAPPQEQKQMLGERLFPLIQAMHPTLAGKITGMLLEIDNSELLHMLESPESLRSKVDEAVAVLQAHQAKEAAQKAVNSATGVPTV
row,Variant,effect of a mutation on the interaction
1,F1612A,disrupting interaction

# Variants of: B3
# Conditions: with pabp_drome pAbp
# Target sequence in this assay (P21187 whole entry): as the sequence (P21187 whole entry) above
row,Variant,effect of a mutation on the interaction
1,F1389A,disrupting interaction

# Variants of: B3
# Conditions: with pabp1_human PABPC1, P11940
# Target sequence in this assay (P11940 whole entry): as the sequence (P11940 whole entry) above
row,Variant,effect of a mutation on the interaction
1,F1389A,disrupting interaction
